Test [1] concerns the target RsbS (wild type), Listeria monocytogenes (Listeria monocytogenes). In words: cryo-EM structure; stressosomes assembled from purified RsbR, RsbS and RsbT (1:2:5 molar ratio, overnight, 4 °C), purified on Superose 6 in 20 mM Tris-HCl pH 8.5, 250 mM NaCl, 1 mM DTT, 1 mM ADP; 50-150 ug/mL on GO-amino grids; C1, no symmetry imposed; only RsbR and RsbS modelled.
Test [2] deals with RsbS S56A, Listeria monocytogenes (Listeria monocytogenes). The description is as above.

One may read the stoichiometry N as a count of units in the complex or per binding partner. With “RsbR T209E, Listeria monocytogenes (natural protein)”, in test [1], the stoichiometry N is 1 RsbR to RsbS.
The same measure, in the same setting: to “RsbR T175A, Listeria monocytogenes (natural protein)” belongs 2 RsbR to RsbS; to “RsbR T209A, Listeria monocytogenes (natural protein)”, 3 RsbR to RsbS.
Turning to “RsbR (wild type), Listeria monocytogenes (from UniProt Q8GD19 1-278) (natural protein)”, the stoichiometry N in test [2] is 2 RsbR to RsbS.

(Values after PMC12154155.)
